Source: US20250277044A1 (BEIJING HANMI PHARMACEUTICAL, published 2025)

Tests used:
[1] = target: T1, recombinant human 4-1BB (Sino Biological Inc., catalog number 10041-H08H) (human, UniProt Q07011 24-186); experiment: ELISA, coated recombinant human 4-1BB, steps of Example 4
T1 construct: Bought protein coated on ELISA plates; treated as the same molecule; also called recombinant human 4-1BB-His protein; CD137

recombinant mouse 4-1BB = target: T2, recombinant mouse 4-1BB (mouse, UniProt P20334 24-187); experiment: ELISA, coated antigen 1 µg/mL
T2 construct: Bought protein, coated on ELISA plate
T2 sequence (looked up): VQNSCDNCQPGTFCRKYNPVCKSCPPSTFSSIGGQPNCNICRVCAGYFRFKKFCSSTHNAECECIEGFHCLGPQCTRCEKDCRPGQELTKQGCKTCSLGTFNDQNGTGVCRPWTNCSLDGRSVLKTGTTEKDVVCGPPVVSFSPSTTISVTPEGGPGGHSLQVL

recombinant human CD80 = target: T3, recombinant human CD80 (human, UniProt P33681 35-242); experiment: ELISA, coated antigen 1 µg/mL
T3 construct: also called B7 family member
T3 sequence (looked up): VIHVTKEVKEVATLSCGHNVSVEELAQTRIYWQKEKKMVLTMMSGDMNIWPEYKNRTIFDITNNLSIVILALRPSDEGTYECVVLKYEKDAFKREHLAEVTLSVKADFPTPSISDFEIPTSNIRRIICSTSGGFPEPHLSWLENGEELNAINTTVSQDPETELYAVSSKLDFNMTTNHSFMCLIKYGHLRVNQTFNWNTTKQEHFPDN

recombinant human CD86 = target: T4, recombinant human CD86 (human, UniProt P42081 24-245, limits assumed); experiment: ELISA, coated antigen 1 µg/mL
T4 construct: also called B7 family member
T4 sequence (looked up): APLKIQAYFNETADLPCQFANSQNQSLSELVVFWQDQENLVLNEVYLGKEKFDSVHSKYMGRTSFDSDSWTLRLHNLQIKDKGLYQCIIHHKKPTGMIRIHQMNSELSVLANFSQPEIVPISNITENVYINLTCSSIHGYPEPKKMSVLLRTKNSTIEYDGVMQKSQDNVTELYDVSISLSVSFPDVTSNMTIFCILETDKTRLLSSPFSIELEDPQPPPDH

recombinant human PD-L2 = target: T5, recombinant human PD-L2 (human, UniProt Q9BQ51 20-220); experiment: ELISA, coated antigen 1 µg/mL
T5 construct: also called B7 family member
T5 sequence (looked up): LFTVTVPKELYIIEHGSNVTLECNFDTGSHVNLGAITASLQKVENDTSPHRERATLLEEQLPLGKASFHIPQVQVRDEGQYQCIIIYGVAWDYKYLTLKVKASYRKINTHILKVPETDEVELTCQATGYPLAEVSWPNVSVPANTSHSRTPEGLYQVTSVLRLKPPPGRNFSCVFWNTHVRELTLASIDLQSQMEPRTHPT

recombinant human B7-H2 = target: T6, recombinant human B7-H2 (human, UniProt O75144 19-256, limits assumed); experiment: ELISA, coated antigen 1 µg/mL
T6 construct: also called B7 family member
T6 sequence (looked up): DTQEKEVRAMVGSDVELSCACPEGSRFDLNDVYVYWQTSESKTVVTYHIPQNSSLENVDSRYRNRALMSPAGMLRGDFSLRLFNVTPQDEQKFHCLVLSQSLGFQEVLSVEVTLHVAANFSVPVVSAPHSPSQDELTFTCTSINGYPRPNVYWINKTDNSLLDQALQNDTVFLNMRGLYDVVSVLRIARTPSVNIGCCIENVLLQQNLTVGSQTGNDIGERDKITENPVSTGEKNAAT

recombinant human CTLA4 = recombinant human CTLA4 (human, UniProt P16410 36-162); experiment: ELISA, coated antigen 1 µg/mL
recombinant human PDI = target: T7, recombinant human PDI (human, UniProt Q15116 25-167); experiment: ELISA, coated antigen 1 µg/mL
T7 construct: also called PD1 (printed 'PDI'); CD28 family member

recombinant human LAG-3 = target: T8, recombinant human LAG-3 (human, UniProt P18627 23-450); experiment: ELISA, coated antigen 1 µg/mL
T8 sequence (looked up): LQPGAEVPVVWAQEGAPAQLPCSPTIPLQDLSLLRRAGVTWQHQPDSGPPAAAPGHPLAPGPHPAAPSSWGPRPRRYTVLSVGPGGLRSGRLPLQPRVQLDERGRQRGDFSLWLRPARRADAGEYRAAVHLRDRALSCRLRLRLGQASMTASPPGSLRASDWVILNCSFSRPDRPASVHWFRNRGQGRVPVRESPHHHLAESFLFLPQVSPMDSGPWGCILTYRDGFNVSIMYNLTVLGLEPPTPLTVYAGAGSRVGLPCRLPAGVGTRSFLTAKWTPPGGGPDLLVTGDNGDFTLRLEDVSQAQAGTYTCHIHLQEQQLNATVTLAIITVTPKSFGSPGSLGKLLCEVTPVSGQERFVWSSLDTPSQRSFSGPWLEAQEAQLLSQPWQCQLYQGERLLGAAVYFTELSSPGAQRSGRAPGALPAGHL

recombinant human TIM-3 = recombinant human TIM-3 (human, UniProt Q8TDQ0 22-200); experiment: ELISA, coated antigen 1 µg/mL
recombinant human BTLA = target: T9, recombinant human BTLA (human, UniProt Q7Z6A9 31-157, limits assumed); experiment: ELISA, coated antigen 1 µg/mL
T9 construct: also called CD28 family member

recombinant human CD28 = target: T10, recombinant human CD28 (human, UniProt P10747 19-152); experiment: ELISA, coated antigen 1 µg/mL
T10 construct: also called CD28 family member

recombinant human OX40 = target: T11, recombinant human OX40 (human, UniProt P43489 29-216); experiment: ELISA, coated antigen 1 µg/mL
T11 sequence (looked up): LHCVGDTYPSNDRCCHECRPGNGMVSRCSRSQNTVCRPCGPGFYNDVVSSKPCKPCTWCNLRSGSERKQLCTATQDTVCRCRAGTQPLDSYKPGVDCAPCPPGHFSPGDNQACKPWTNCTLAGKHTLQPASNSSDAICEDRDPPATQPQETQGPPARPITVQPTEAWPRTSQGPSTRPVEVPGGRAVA

recombinant human CD27 = recombinant human CD27 (human, UniProt P26842 20-192); experiment: ELISA, coated antigen 1 µg/mL
recombinant human ICOS = target: T12, recombinant human ICOS (human, UniProt Q9Y6W8 21-141); experiment: ELISA, coated antigen 1 µg/mL
T12 construct: also called CD28 family member
T12 sequence (looked up): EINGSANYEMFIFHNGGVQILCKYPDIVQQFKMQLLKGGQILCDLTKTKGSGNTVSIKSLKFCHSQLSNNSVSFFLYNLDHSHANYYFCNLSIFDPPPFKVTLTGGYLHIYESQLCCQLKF

T1 sequence (Q07011 24-186 limits assumed): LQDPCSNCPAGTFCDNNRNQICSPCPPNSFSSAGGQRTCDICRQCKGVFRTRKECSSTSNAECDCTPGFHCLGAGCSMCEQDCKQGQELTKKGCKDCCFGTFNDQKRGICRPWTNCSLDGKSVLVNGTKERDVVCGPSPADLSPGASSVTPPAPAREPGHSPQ
recombinant human CTLA4, sequence (P16410 36-162 limits assumed): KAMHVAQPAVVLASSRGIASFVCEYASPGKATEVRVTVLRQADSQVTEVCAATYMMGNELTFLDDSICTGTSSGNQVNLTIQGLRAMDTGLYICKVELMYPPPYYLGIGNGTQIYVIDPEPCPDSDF
T7 sequence (Q15116 25-167 limits assumed): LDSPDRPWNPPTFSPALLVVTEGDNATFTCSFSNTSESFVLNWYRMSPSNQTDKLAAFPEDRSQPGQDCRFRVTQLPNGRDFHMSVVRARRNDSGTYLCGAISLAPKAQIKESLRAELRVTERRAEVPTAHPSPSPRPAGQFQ
recombinant human CD27, sequence (P26842 20-192 limits assumed): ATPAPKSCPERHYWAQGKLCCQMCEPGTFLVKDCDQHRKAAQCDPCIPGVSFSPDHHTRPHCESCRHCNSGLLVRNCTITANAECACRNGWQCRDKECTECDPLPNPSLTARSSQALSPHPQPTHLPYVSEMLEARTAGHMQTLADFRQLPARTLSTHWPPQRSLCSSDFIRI

B1: humanized anti-human 4-1BB monoclonal antibody BH3145b (antibody, human IgG4 S228P, kappa, V domains shown)
VH: QVQLVQSGAEVKKPGSSVKVSCKASGYTFTSYWINWVRQAPGQGLEWMGNIYPSDSYTNYNQKFKDRVTITADKSTSTAYMELSSLRSEDTAVYYCARLYYGSSPFDYWGQGTTVTVSS
VL: DIQMTQSPSSLSASVGDRVTITCRASQDISNYLNWYQQKPGKVPKLLIYHTSRLHSGVPSRFSGSGSGTDFTLTISSLQPEDVATYYCQQGHTLPRTFGGGTKVEIKR
notes: also called z0
B1: binds [1].

B2: chimeric anti-human 4-1BB monoclonal antibody mAb-33-83 (antibody, human IgG4 S228P, kappa, V domains shown)
VH: QVQLQQPGAELVRPGASMKLSCKASGYTFTSYWINWVKQRPGQGLEWIGNIYPSDSYTNYNQKFKDKATLTVDKSSSTAYMQLSSPTSEDSAVYYCTRLYYGSSPFDYWGQGTTLTVSS
VL: DIQMTQTTSSLSASLGDRVTISCRASQDISNYLNWYQQKPDGTVKLLIYHTSRLHSGVPPRFSGSGSGTNYSLTISNLEQEDIATYFCQQGHTLPRTFGGGTKLEIKR
notes: expressed in ExpiCHO cells; also called Chimeric mAbs
B2: no binding (recombinant mouse 4-1BB); no binding (recombinant human CD80); no binding (recombinant human CD86). B2: no binding (recombinant human PD-L2); no binding (recombinant human B7-H2); no binding (recombinant human CTLA4). B2: no binding (recombinant human PDI); no binding (recombinant human LAG-3); no binding (recombinant human TIM-3). B2: no binding (recombinant human BTLA); no binding (recombinant human CD28); no binding (recombinant human OX40). B2: no binding (recombinant human CD27); no binding (recombinant human ICOS).
